Data reported in the nanobody polyreactivity screen of Harvey et al. (2022).

Assay: yeast display, Sf9 membrane polyspecificity reagent, FACS + sequencing; frameworks hold sequencing errors
Summary of the method: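 Nanobodies came from a synthetic yeast display library in Saccharomyces cerevisiae BJ5465, induced with galactose for 36–48 hours and stained for 1 hour at 4 °C with 10% biotinylated, detergent-solubilized Sf9 membrane reagent. Cells were enriched on streptavidin microbeads and then FACS-sorted, with low and high (top ~1%) gates set on anti-HA fluorescence for expression and streptavidin fluorescence for reagent binding. Each polyreactivity label reflects the gate a clone came from. Genes were amplified by colony PCR, sequenced by MiSeq 2 × 250 and filtered by CDR length.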

Row | Sequence | polyreactivity (PSR sort gate)
1 | QVQLVESGAALVQAGGSLRLSCAASGFIIAVYAMGWYRQAPGKERELVAAITRSGGSTYYADSVKGRFTISRDNAKNTFYLQMNSLKPEDSAVYYCAARNTQPASYGYGYWGLGTQVTVSS | high polyreactivity
2 | QVQLVESGAALVQAGGSLSLSCAASGLTFYYYAMGWYRQAPGKERELVAAITSGGSTNYADSVKGRFTISRDNAKNTVFLQINSLKPEDTAVYYCAADPRYSFWGMYYWGLGTQVTVSS | low polyreactivity
3 | QVQLVESGAGIVQAGGSLRLSCAASGIIFNLYAMGWYRQAPGKERELVASISIGGSTNYADSVKGRFTISRDNAKNTVYLQMNSLKPEDTAVYYCAAALYEATYDANGLDMDYWGQGTQVTVSS | high polyreactivity
4 | QVQLVESGAGIVQAGGSLRLSCAASGRIFRYNAMGLYRQAPGKERELVAAITWSGVSTYYAHSVKGRFTISRDTAKITVFLQMNSLYPEDTGVYYCNGRRWPAWSSYDYWGQGTQVNVSS | high polyreactivity
5 | QVQLVESGAGIVQAGGSLRLSCAASVSTFQSYAMGLYRPAPGKERELFAAISFSGGSTYYADSVKGRFTISRDNAKNTVYLQMNSLKPEDTAVYYCAKRGWVYFHGYDYWGQGTQVTVSS | low polyreactivity
6 | QVQLVESGAGLFQAGGSLRISCAASGLIFDGYAMGWYRQATGKERELVAAITRSGGSTSYADSVKARFTISRDNAKNTVYLHMNSLKPEDTAVYYCAAKVHTFYYHYYSWGQGTQVTVSS | high polyreactivity
7 | QVQLVESGAGLGQAGVSLRLSCAASGSTFPTYAMGWYRPAPGKERELVAAIDWSDGTTYYADSVKGRFTISRDNANNTVYLQMNSLKPDETAGYYCAASLSLSEYDYWGQATQVTVSS | low polyreactivity
8 | QVQLVESGAGLLQAGGSLRLSCAASGITLRRNTMGWYRQAPGKERELVAAITRSGGSTYYADSVKGRVTISRDNAKNTVYLQINSLKPEVTAVYYCAEGPSYGGPSHVYWRQGTQVTVSS | high polyreactivity
9 | QVQLVESGAGLVQAGASLRLSCAASGRIFSRYVMGWYRQAPGKEREFVASITWSGSSTYYADSVKGRFTLSRDNAKNTVYVQMNSLKPEDTAVYYCAALGLLSPSPWGTHIYEYDSWGQGTQVTVSS | low polyreactivity
10 | QVQLVESGAGLVQAGGRIRLSCAASGRTLYGNTMGWYRPAPWKERELVAAINWSGGRTRYADSVKGRFTNSRDNAKNTVYVEMNSVKPEDTAVYYCAATKRANHERFGSWGQGTQVTVSS | high polyreactivity
11 | QVQLVESGAGLVQAGGRIRLTCAASRSILRGYAMGWYRQAPGKERELVAAITWNGGSTYYADSVKGRFTISRDNANNTVYLHMISLKPEDTAVYYFNRAIGPYSYPDNYWGQGTQVTVSS | high polyreactivity
12 | QVQLVESGAGLVQAGGRLRLSCAASGFTFRAYDMGWSRQAPAKERELVAAINISGGSTYYADSVKGRFTISRDNAKNTVYLQMNSLKPVDTAVYYCAAVPWVGTLYPRVGYWGQGTQGTVSS | low polyreactivity
13 | QVQLVESGAGLVQAGGRLRLSCAATGLTFYFYVMGWYRQAPGKERELVADISTSDDSTYYADSVKGRFTISRDNAKNTVYLQMNSLKPEDTSVYYCATATRTYSAWYEYDYWGQVTQVTVSS | low polyreactivity
14 | QVQLVESGAGLVQAGGSLRLCCAASGFIFYLNTMGWYRQAPGKERELVAGITWRGGTTYYADSVKGRFTISRDNAKNSVYLQMNSLKPEDTAVYYCAARRYSRPYSYGFYYWGQGTLVTVSS | high polyreactivity
15 | QVQLVESGAGLVQAGGSLRLCCAASGRIFDWYVMGWYRQAPGKEWELVAAINSGVSTKYADSVKGRFTISRDNAKNTVYLQMNSLKPEDTAVYYCAAQSFSDYRRTGRKSSYYYWGQVTQVTVSS | low polyreactivity
16 | QVQLVESGAGLVQAGGSLRLICAASGLTFIYYAMGWYRQAPGKERELVAAISVSGGSTYYADSVKGRFTISRDNAKNTVYLQMNRLQREDTAVYYCAADWLVHKPRYQYSFDFWGQVTQVTVSS | low polyreactivity
17 | QVQLVESGAGLVQAGGSLRLSCAASGFIFRQYAMGWYRQAPGQERELVAAISWSGGSTYYADSVKGRFTISRDNAKNTVYLQKNSLKPEDTAVYYCNVLTPPTDYDYWGQGTQVTVSS | high polyreactivity
18 | QVQLVESGAGLVQAGGSLRLSCAASGFIFVKYAMGWYRQAPGKERELVAAISRSGGRTYYADSVKGRFTISRDNAKNNVYLQMNSLKPEDTAVYYCATDYYEDWRGYEDYWYRPYDYWGQGTQVTVSS | high polyreactivity
19 | QVQLVESGAGLVQAGGSLRLSCAASGFIFYYYAMGRYRPAPGKERELVAAIDSSGGDTYFADSVKGRFSISRDHAKNTVYLQMNSLKPEDTAVYYCNARQRLISLYGNRLTYGYWGQGTQVTVSS | high polyreactivity
20 | QVQLVESGAGLVQAGGSLRLSCAASGFTFDQYAMGWYRPATGKERELVAGISWGGGTTYYADSVKGRFTISRDNAKNTVYLHMNSLKPEDTAVYYCAAVRPGYPYYGSDYWGPGTQVTVSS | low polyreactivity
21 | QVQLVESGAGLVQAGGSLRLSCAASGFTFFGDYAMGWYRQAPGKERELVAAIDWSGGTTYYADSVKGRFTISRDNAKNTVYLQMNSLKPEDTAVYYCARRYYYSYPPQEDDYWGQGTQVTVSS | high polyreactivity
22 | QVQLVESGAGLVQAGGSLRLSCAASGFTFPYYAMGWYRQAPGKERELVAAINYSGSSTDYADSVKGRFTISRDNAKNTVYLQMNSLKPEDTAVYYCAATPAYYYQAVTEDDYWGQGTHVTVSS | high polyreactivity
